These results are taken from patent US20240116985A1 (published 2024).

In test [1] the target is T1, full-length beta-Catenin (Uniprot ID P35222) (Homo sapiens (Human), UniProt P35222 1-781).
T1 construct: Used full-length in the fluorescence polarization probe solution (10 nM); also called bCat; B-Catenin
T1 sequence: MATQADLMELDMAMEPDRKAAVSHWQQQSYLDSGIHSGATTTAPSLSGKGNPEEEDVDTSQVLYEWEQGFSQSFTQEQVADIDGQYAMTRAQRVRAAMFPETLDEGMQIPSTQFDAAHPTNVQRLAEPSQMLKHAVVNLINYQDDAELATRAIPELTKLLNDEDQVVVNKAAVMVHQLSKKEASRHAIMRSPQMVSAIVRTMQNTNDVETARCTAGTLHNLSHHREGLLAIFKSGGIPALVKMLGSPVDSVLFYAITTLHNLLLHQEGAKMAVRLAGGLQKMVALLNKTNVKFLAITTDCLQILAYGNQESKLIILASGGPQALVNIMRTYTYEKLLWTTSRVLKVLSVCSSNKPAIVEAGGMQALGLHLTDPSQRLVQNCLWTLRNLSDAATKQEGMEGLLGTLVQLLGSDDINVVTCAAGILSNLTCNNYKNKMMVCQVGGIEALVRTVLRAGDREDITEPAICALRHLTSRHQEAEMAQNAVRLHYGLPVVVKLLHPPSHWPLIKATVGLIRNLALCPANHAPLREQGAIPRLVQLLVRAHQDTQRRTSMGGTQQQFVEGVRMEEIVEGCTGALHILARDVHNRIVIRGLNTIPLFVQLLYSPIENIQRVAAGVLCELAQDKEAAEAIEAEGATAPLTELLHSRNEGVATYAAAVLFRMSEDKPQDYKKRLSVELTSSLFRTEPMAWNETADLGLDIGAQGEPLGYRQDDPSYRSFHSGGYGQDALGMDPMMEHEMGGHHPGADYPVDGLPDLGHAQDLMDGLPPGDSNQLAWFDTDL
The test can be described thus: fluorescence polarization competition; displacement of 5FAM-TCF4(10-53) from full-length beta-catenin. Here is the method:
(§1) The plate was incubated protected from light for 60 minutes at 20° C. prior to read. Reads were performed on a CLARIOstar plate reader (BMG Labtech) in duplicate, and data were fitted to a 1:1 binding model with hill slope using an in-house script. All provided concentrations are final concentrations.

The target in test [2] is T2, full-length beta-Catenin (Uniprot ID P35222) (Homo sapiens (Human), UniProt P35222 1-781).
T2 construct: The assay protocols call it full-length; also called B-Catenin; bCat
T2 sequence: T1 sequence
Kind of test: AlphaScreen competition; full-length beta-catenin with biotin-labelled TCF4 10-53 peptide as competitor. Here is the method:
Equal volume of the titrated peptide was added to the plate and incubated for 15 minutes at 20° C. Then 4 uL of donor and 4 uL acceptor beads at 10 ug/mL were added to the plate, for a 16 uL reaction pool and protected from light for 60 minutes at 20° C. prior to read. Reads were performed on a CLARIOstar plate reader (BMG Labtech) in duplicate, and data were fitted to a 1:1 binding model with hill slope using an in-house script. All provided concentrations are final concentrations.

Test [3] has as its target T2, full-length beta-Catenin (Uniprot ID …). The test can be described thus: fluorescence polarization competition; full-length beta-catenin with 5FAM-labelled TCF4 10-53 peptide as competitor. On the procedure: as §1
Test [4] has as its target T3, B-cat-Halo (beta-catenin HaloTag fusion expressed in HEK293 cells) (Homo sapiens (Human), UniProt P35222 1-781).
T3 sequence: T1 sequence
The test can be described thus: cell-based or functional assay.

Starred links: 1 amine or outer side, 2 acyl side, 3 side chain; linkers in the order of their positions; H or OH if unused. Positions of bridges follow the written chain, without caps; N, C: chain ends. Non-standard residues stand in square brackets, D forms with d. Primed or numbered codes have the meaning given here. B5(29) = 2-amino-2-(pent-4-en-1-yl)hept-6-enoic acid (2,2-bis(4-pentenyl)glycine), stitching residue bearing both staples, C=CCCCC(CCCC=C)(N[*:1])C(=O)[*:2]; PyrS2″ = (S)-3-amino-1-((pent-4-en-1-yloxy)carbonyl)pyrrolidine-3-carboxylic acid (stapling residue), C=CCCCOC(=O)N1CC[C@@](N[*:1])(C(=O)[*:2])C1; B5(17) = 2,2-bis(4-pentenyl)glycine = 2-amino-2-(pent-4-en-1-yl)hept-6-enoic acid, stitching residue, C=CCCCC(CCCC=C)(N[*:1])C(=O)[*:2]; B5(4) = 2,2-bis(4-pentenyl)glycine = 2-amino-2-(pent-4-en-1-yl)hept-6-enoic acid (stitching residue), C=CCCCC(CCCC=C)(N[*:1])C(=O)[*:2]; B5(6) = 2-amino-2-(pent-4-en-1-yl)hept-6-enoic acid (bis(4-pentenyl)glycine), stitching residue, C=CCCCC(CCCC=C)(N[*:1])C(=O)[*:2]; B5(3) = 2,2-bis(4-pentenyl)glycine (stitching residue), C=CCCCC(CCCC=C)(N[*:1])C(=O)[*:2]; B5 = 2-amino-2-(pent-4-en-1-yl)hept-6-enoic acid, C=CCCCC(CCCC=C)(N[*:1])C(=O)[*:2]; Phe(3,4-F2) = N[C@@H](Cc1ccc(F)c(F)c1)C(=O)O; Phe(3-F) = N[C@@H](Cc1cccc(F)c1)C(=O)O; Phe(4-F) = N[C@@H](Cc1ccc(F)cc1)C(=O)O; Bta = N[C@@H](Cc1csc2ccccc12)C(=O)O; αAllylPro = C=CC[C@@]1(C(=O)O)CCCN1; tBuAla = CC(C)(C)C[C@H](N)C(=O)O; 2Pal = N[C@@H](Cc1ccccn1)C(=O)O; 3Pal = N[C@@H](Cc1cccnc1)C(=O)O; 3Thi = N[C@@H](Cc1ccsc1)C(=O)O; S8 = C=CCCCCCC[C@](C)(N)C(=O)O; hSer = N[C@@H](CCO)C(=O)O

In test [1], Ac-[αAllylPro]DT[B5(29)]DEAAFQ[S8]F[Bta]Q-NH2 (staple 1-4, 4-11, Stapled peptide composition) [I-477] came in with an EC50 of 0.119 µM.

B1: I-497 (peptide)
peptide: Ac-[αAllylPro]DA[B5(6)][hSer]EAAFQ[S8]F[Bta]Q-NH2
modifications: staple 1-4, 4-11; not fully specified; printed as Ac-PL3-Asp-Ala-B5-Hse-Glu-Ala-Ala-Phe-Gln-S8-Phe-BztA-Gln-NH2
notes: Stapled peptide composition
In test [1], B1 had an EC50 of 5 µM.

B2: I-492 (peptide)
peptide: XDAXDEAAFQXFXS
modifications: not fully specified; Ac-PL3-Asp-Ala-B5-Asp-Glu-Ala-Ala-Phe-Gln-S8-Phe-BztA-Hse-NH2; N-terminal acetyl, C-terminal amide; stapled PL3-B5 and B5-S8
notes: Stapled peptide composition
B2 showed a concentration giving a half-maximal response (EC50) in test [1] of 0.053 µM. Compared with the last molecule, the EC50 is about 94-fold lower.

B3: I-265 (peptide)
peptide: Ac-[αAllylPro]DA[B5(4)]DDAA[Phe(3-F)]V[S8]FWQ-NH2
modifications: staple 1-4, 4-11; not fully specified; printed as Ac-PL3-Asp-Ala-B5-Asp-Asp-Ala-Ala-3FF-Val-S8-Phe-Trp-Gln-NH2
notes: Stapled (stitched) peptide; also called Ac-PL3-Asp-Ala-B5-Asp-Asp-Ala-Ala-3FF-Val-S8-Phe-Trp-Gln-NH2
On to B3, for which the EC50 worked out at 0.194 µM in test [2] and 3.76 µM in test [3].

Take Ac-[αAllylPro]D[tBuAla][B5]DDAAFN[PyrS2″][3Thi][Bta][dT]-NH2 (staple 1-4, 4-11) [I-817]: in test [4], the “NanoBRET % inh @ 10 uM” value is 45% and the “NanoBRET IC50” value is 6.8 µM. Regarding Ac-[αAllylPro]D[tBuAla][B5]DDAAFN[PyrS2″][3Thi][Bta]S-NH2 (staple 1-4, 4-11) [I-815], the “NanoBRET IC50” value in test [4] stood at 11.8 µM.

B4: I-270 (peptide)
peptide: Ac-[αAllylPro]DA[B5(17)]D[2Pal]AAFV[S8]FWQ-NH2
modifications: staple 1-4, 4-11
notes: Stapled (stitched) peptide; also called Ac-PL3-Asp-Ala-B5-Asp-2PyrA-Ala-Ala-Phe-Val-S8-Phe-Trp-Gln-NH2
Consider B4, for which the EC50 in test [2] turned out to be 0.835 µM; in test [3] it was 5 µM.

B5: I-267 (peptide)
peptide: Ac-[αAllylPro]DA[B5(17)]DDAA[Phe(3,4-F2)]V[S8]FWQ-NH2
modifications: staple 1-4, 4-11
notes: Stapled (stitched) peptide; also called Ac-PL3-Asp-Ala-B5-Asp-Asp-Ala-Ala-34FF-Val-S8-Phe-Trp-Gln-NH2
Regarding B5, the EC50 in test [2] came to 0.62 µM; in test [3] it was 5 µM.

B6: I-271 (peptide)
peptide: Ac-[αAllylPro]DA[B5(17)]D[3Pal]AAFV[S8]FWQ-NH2
modifications: staple 1-4, 4-11
notes: Stapled (stitched) peptide; also called Ac-PL3-Asp-Ala-B5-Asp-3PyrA-Ala-Ala-Phe-Val-S8-Phe-Trp-Gln-NH2
With B6, the results for the EC50 in test [2] and in test [3] were 0.788 µM and 5 µM, respectively.

B7: I-289 (peptide)
peptide: XDAXDDAAFVXFW
modifications: not fully specified; N-terminal Ac; PL3 at 1; B5 at 4; S8 at 11; C-terminal NH2; staples PL3(1)-B5(4) and B5(4)-S8(11) by olefin metathesis
notes: Stapled (stitched) peptide; also called Ac-PL3-Asp-Ala-B5-Asp-Asp-Ala-Ala-Phe-Val-S8-Phe-Trp-NH2
For the molecule B7, the figures for the EC50 in test [2] and in test [3] were 0.626 µM and 5 µM, respectively.

B8: I-276 (peptide)
peptide: XDAXDDAAFVXXWQ
modifications: not fully specified; N-terminal Ac; PL3 at 1; B5 at 4; S8 at 11; 1NapA at 12; C-terminal NH2; staples PL3(1)-B5(4) and B5(4)-S8(11) by olefin metathesis
notes: Stapled (stitched) peptide; also called Ac-PL3-Asp-Ala-B5-Asp-Asp-Ala-Ala-Phe-Val-S8-1NapA-Trp-Gln-NH2
As for B8, the EC50 in test [2] turned out to be 0.329 µM; in test [3], 3.43 µM. With Ac-[αAllylPro]D[tBuAla][B5]DDAAFN[PyrS2″][3Thi][Bta]T-NH2 (staple 1-4, 4-11) [I-814], the “NanoBRET IC50” value in test [4] turned out to be 12.7 µM.

Take Ac-[αAllylPro]D[tBuAla][B5(3)]DDAAFT[PyrS2″][3Thi][Bta]Q-NH2 (staple 1-4, 4-11) [I-809]: the “NanoBRET IC50” value in test [4] worked out at 11.7 µM.

B9: I-266 (peptide)
peptide: Ac-[αAllylPro]DA[B5(4)]DDAA[Phe(4-F)]V[S8]FWQ-NH2
modifications: staple 1-4, 4-11
notes: Stapled (stitched) peptide; also called Ac-PL3-Asp-Ala-B5-Asp-Asp-Ala-Ala-4FF-Val-S8-Phe-Trp-Gln-NH2
With B9, the values for the EC50 in test [2] and in test [3] were 0.318 µM and 5 µM, respectively.

B10: I-290 (peptide)
peptide: XDAXDDAAFVXFW
modifications: not fully specified; N-terminal Ac; PL3 at 1; B5 at 4; S8 at 11; C-terminal NH2; staples PL3(1)-B5(4) and B5(4)-S8(11) by olefin metathesis
notes: as for B7
With B10, the EC50 in test [2] was 0.303 µM; in test [3], 3.29 µM.

B11: I-264 (peptide)
peptide: Ac-[αAllylPro]DA[B5(4)]DDAA[Phe(3-F)]V[S8]FWQ-NH2
modifications: staple 1-4, 4-11; not fully specified; printed as Ac-PL3-Asp-Ala-B5-Asp-Asp-Ala-Ala-3FF-Val-S8-Phe-Trp-Gln-NH2
notes: as for B3
For B11, the EC50 came to 0.364 µM in test [2] and 5 µM in test [3].
